Experimental data published in patent publication US20210063414A1, “METHODS FOR PREVENTING AND/OR TREATING BONE LOSS CONDITIONS BY MODULATING IRISIN” (Dana-Farber Cancer Institute, Inc., priority 2018, published 2021).

Assays:
[1] = target: integrin αV/β5 (Homo sapiens, UniProt P06756+P18084); assay: FAK phosphorylation in HEK293T cells with forced expression of integrin αV/β5; assay type: cell-based; set-up: expressed in transfected cells; host or cells: HEK293T; conditions: HEK293T, forced expression of integrin αV/β5, irisin 5 minutes
Method: 100 nM irisin was incubated with 5 nM indicated his-tag integrins followed by immunoprecipitation using Ni-NTA agaroses. Precipitated integrins and co-precipitated irisin were analyzed by immunoblot analysis. […] HEK293T cells were seeded and incubated until 50% cell density. The cells were transfected with 0.1 μg plasmids of indicated integrins. After 48 hours, the cells were incubated with Freestyle293 medium for 3 hours and were treated with indicated concentration of irisin for 5 minutes. Cells were lysed to detect the indicated protein level using immunoblot analysis. […] Sclerostin mRNA level was analyzed by qRT-PCR. […]
(§1) 100 nM irisin was incubated with 5 nM indicated his-tag integrins followed by immunoprecipitation using Ni-NTA agaroses. Precipitated integrins and co-precipitated irisin were analyzed by immunoblot analysis. […] Cells were treated and analyzed as FIG. 14B except using plasmids encoding integrin α5/β1 or integrin α11/β1 (FIG. 15C) integrin αV/β1(FIG. 15D).
MLO-Y4 cells were treated and analyzed as described in FIG. 5A with addition of pretreatment of control RGD peptide, cyclo RGDyK (cRGDyK), or SB273005. […] HEK293 cells were treated and analyzed as described in FIG. 14B except the treatment of different dose of cyclo RGDyK. […] 8 weeks old male mice were treated and analyzed as described in FIG. 5D except the additional group with co-injection of 1 mg/kg SB273005. […]

[2] = target: T1, integrin αV/β3 (Homo sapiens, UniProt P05106+P06756); assay: FAK phosphorylation in HEK293T cells with forced expression of integrin αV/β3; assay type: cell-based; conditions: HEK293T, forced expression of integrin αV/β3, irisin 5 minutes
T1 construct: expressed in transfected cells; host or cells: HEK293T
Method: 100 nM irisin was incubated with 5 nM indicated his-tag integrins followed by immunoprecipitation using Ni-NTA agaroses. Precipitated integrins and co-precipitated irisin were analyzed by immunoblot analysis. […] HEK293T cells were seeded and incubated until 50% cell density. The cells were transfected with 0.1 μg plasmids of indicated integrins. After 48 hours, the cells were incubated with Freestyle293 medium for 3 hours and were treated with indicated concentration of irisin for 5 minutes. Cells were lysed to detect the indicated protein level using immunoblot analysis. […] MLO-Y4 cells were treated as described in FIG. 2D with addition of pretreatment of indicated antagonistic antibodies for 10 minutes. Cells were lysed to detect the indicated protein level using immunoblot analysis. […] Sclerostin mRNA level was analyzed by qRT-PCR. […]
as §1, with “15D). […]” for “15D).”
Cells were harvested in RIPA buffer containing protease-inhibitor cocktail and phosphataseinhibitor cocktail. […] Protein levels were analyzed via western blot using indicated antibody. […]

Chain of integrin αV/β5 (P06756 31-889 limits assumed): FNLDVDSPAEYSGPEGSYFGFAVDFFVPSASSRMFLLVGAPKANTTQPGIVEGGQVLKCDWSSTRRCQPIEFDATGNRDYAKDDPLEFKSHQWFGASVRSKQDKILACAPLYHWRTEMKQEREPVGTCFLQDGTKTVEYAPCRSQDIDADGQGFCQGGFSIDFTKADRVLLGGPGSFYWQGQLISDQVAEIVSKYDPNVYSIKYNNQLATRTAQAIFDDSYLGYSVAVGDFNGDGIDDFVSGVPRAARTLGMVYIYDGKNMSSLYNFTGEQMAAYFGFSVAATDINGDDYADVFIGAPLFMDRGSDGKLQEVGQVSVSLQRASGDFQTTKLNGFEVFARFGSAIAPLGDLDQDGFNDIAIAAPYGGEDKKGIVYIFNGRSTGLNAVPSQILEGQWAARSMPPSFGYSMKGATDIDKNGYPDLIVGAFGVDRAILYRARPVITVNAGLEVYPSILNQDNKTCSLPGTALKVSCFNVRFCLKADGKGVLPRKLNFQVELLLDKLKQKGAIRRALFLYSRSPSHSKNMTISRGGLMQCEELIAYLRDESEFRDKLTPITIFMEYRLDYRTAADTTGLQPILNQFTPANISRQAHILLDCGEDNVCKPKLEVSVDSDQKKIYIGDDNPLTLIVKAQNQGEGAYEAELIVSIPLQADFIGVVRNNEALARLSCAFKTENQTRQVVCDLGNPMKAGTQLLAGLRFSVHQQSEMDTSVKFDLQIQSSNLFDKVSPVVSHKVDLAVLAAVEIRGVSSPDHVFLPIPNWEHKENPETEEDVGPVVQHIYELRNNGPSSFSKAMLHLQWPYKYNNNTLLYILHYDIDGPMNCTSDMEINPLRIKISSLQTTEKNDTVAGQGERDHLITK
Chain of integrin αV/β5 (P06756 891-1048 partner limits assumed): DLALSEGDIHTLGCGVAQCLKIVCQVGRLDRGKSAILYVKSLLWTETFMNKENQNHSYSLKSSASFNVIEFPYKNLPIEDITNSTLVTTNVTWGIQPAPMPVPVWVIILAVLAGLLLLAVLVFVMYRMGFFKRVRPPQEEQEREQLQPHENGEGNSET
Chain of integrin αV/β5 (P18084 24-799): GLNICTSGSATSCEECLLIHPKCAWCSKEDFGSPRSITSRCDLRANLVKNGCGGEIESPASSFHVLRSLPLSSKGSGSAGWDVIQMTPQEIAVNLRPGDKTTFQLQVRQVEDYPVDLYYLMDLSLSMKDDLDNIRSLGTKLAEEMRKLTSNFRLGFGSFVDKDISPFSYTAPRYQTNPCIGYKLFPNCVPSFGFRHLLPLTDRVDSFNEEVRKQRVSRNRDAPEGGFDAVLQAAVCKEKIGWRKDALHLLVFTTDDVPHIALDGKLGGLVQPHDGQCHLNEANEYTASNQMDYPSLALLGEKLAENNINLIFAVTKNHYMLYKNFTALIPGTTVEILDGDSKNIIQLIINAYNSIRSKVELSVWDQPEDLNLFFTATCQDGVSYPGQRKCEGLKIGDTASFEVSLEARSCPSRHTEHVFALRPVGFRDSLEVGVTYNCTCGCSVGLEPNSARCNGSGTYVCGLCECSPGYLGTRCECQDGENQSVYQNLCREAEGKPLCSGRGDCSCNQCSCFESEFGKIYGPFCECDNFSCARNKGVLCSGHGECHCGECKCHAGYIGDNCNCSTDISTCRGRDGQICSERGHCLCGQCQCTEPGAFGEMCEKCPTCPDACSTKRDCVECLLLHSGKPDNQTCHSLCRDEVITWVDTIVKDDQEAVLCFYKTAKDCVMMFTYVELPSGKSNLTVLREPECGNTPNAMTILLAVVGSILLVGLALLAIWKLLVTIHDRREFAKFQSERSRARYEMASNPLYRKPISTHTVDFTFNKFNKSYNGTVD
T1 sequence (P06756 31-889 limits assumed): as the sequence (P06756 31-889 limits assumed) above
T1 sequence (P06756 891-1048 partner limits assumed): as the sequence (P06756 891-1048 partner limits assumed) above
T1 sequence (P05106 27-788): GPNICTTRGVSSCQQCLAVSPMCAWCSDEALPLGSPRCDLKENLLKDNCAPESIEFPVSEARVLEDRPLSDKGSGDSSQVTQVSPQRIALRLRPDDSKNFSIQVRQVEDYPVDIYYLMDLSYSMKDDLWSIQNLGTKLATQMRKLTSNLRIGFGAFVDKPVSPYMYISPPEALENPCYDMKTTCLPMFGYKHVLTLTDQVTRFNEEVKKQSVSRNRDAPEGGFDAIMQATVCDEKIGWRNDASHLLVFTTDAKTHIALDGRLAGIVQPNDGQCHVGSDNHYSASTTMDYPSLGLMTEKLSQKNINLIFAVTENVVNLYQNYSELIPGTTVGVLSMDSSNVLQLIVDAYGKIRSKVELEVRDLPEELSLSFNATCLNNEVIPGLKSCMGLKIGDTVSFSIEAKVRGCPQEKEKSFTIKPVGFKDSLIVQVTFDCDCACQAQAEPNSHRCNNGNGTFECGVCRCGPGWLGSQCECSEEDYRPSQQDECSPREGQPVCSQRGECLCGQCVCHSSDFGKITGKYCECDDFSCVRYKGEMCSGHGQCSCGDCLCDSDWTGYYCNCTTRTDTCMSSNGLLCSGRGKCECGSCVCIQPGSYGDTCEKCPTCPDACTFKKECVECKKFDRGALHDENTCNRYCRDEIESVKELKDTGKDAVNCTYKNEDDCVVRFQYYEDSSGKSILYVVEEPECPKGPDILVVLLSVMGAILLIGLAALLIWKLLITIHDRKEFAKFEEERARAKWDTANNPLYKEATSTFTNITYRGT

B1: irisin: secreted cleaved form of FNDC5; recombinant human/mouse irisin with C-terminal his tag produced in HEK293 cells (protein)
chain: DSPSAPVNVTVRHLKANSAVVSWDVLEDEVVIGFAISQQKKDVRMLRFIQEVNTTTRSCALWDLEEDTEYIVHVQAISIQGQSPASEPVLFKTPREAEKMASKNKDEVTMKE
modifications: left off: small tags and cut ends
notes: secreted cleaved form of FNDC5; recombinant human/mouse irisin with C-terminal his tag produced in HEK293 cells
B1 was tested, and the “phosphorylation of FAK upon irisin treatment” value [1] was “enhanced level of phosphorylation of FAK” and the “phosphorylation of FAK upon irisin treatment” value [2] was “not”.
